The assay deals with mouse importin α1 lacking the N-terminal importin-β-binding domain (ΔIBB-importin α1) (mouse). Description: ITC.

influenza NLS1 peptide (1-…-13) yielded a Kd of 4.9 µM. That is a single-digit micromolar value.
